Source: the supplement of paper PMC10567573

B1: TRIM63 (parent)
chain: FRCPTCRHEVIMDRHGVYGLQRNL
B2: HESX1 (parent)
chain: SKYENYFSASERLSLKRELSWYRG

Variants of: B1
Assay: protein stability index of a GFP-peptide fusion (GPS, HEK-293T) (PSI 1-6); higher = more stable
Conditions: c terminus: a fixed tail appended
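Further: lentivirally expressed fusions sorted by FACS into six bins by GFP to DsRed ratio, PSI derived from sequencing read proportions per bin multiplied by bin number.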

Protein stability index of substitutions, site by site:
G19: W 3.11, Y 2.92, K 2.07, C 2.57, Q 2.46, T 2.8, I 1.92, D 1.67, P 2.25, R 2.31, H 2.51, M 1.98, F 2.28, N 2.21, L 1.47, E 1.86, S 2.21, V 2.14, A 2.7
L24: W 2.4, G 2.99, T 2.98, S 2.47, V 2.12, N 1.85, Q 2.26, I 1.69, E 2.46, R 1.7, F 1.61, D 2.6, Y 2.7, C 2.75, A 2.34, P 2.98, H 2.88, K 1.89, M 2.03
L20: I 1.6, Q 2.07, W 2.25, T 2.81, G 1.66, S 2.11, P 1.77, C 2.39, F 2.02, V 2.71, H 2.75, N 2.05, R 1.08, K 1.51, E 2.27, M 1.81, Y 1.99, D 2.42, A 1.77
Q21: S 1.55, G 2.42, F 1.27, L 3.19, Y 2.17, K 2.02, N 2.87, M 1.63, V 1.59, I 1.74, E 2.73, H 1.86, D 2.1, A 1.66, W 2.31, R 1.98, P 1.96, C 2.63
R22: F 1.84, I 3.38, P 2.49, N 2.95, C 2.29, E 3.83, L 1.34, Y 1.75, W 2.43, G 1.98, Q 2.24, H 2.17, D 3.21, K 2.02, M 1.45, T 2.08, V 2.43, S 2.35, A 2.29
V17: L 2.08, I 2.41, S 2.77, D 1.58, N 2.28, P 2.26, H 2.23, W 1.8, T 2.66, K 2.19, G 3.09, M 1.69, E 1.43, R 1.53, Q 3, Y 2.19, F 2.75, C 2.47
N23: I 1.89, D 2.55, M 1.47, Q 2.67, K 2.04, R 2.54, T 1.67, W 2.79, A 1.79, Y 1.25, V 2.96, F 2.02, E 2.05, P 1.56, G 2.82, H 2.5, S 2.14, C 2.2, L 1.7
Y18: C 2.06, E 3.06, I 1.86, V 1.67, S 2.62, P 2.23, F 2.13, Q 3.53, A 1.98, R 2.08, K 1.98, G 2.31, D 1.73, T 2.69, L 2.54, H 1.87, M 3.62, W 1.94

Variants of: B2
Assay: as above
Conditions: c terminus: a fixed tail appended

Protein stability index of substitutions, site by site:
R12: C 2.4, K 1.93, S 2, Q 1.95, G 1.77, E 2.77, H 2.65, V 1.55, N 1.79, L 2.03, D 2.32, Y 2.01, F 1.55, T 2.88, M 1.06, I 2.77
S10: N 2.13, A 2.07, W 2.31, Y 1.67, T 2.77, E 3.04, D 2.19, M 1.86, P 1.95, G 1.56, C 2.34, Q 2.28, H 2.38, K 2.72, R 2.3, F 1.07
A9: H 1.59, Y 2.08, E 3.38, P 1.4, S 1.82, T 2.18, D 2.73, M 2.15, W 1.52, R 1.99, F 1.51, I 1.44, Q 2.01, K 2.01, V 1.41, N 2.86, L 1.58, C 2.45
N5: T 2.24, D 1.71, I 2.23, C 1.51, Q 2.12, P 1.63, H 1.9, Y 2.24, K 1.42, A 2.03, F 1.03
F7: T 3.02, K 1.77, I 1.98, W 1.3, S 2.83, M 2.12, V 3.05, L 2.64, Y 2.63, H 2.72, D 2.39, G 1.42, E 1.96
E4: Y 2.33, D 2.45, V 2.1, N 1.71, R 2.54, S 1.27, C 2.24, G 2.13, I 1.26, A 1.61, Q 1.56, P 2.06, M 2.02, H 1.17, L 2.23, T 2.98
Y3: C 1.79, V 3.67, N 1.72, F 1.48, I 2.26, D 2.29, L 1.97, S 2.97, R 2.13, M 1.59, K 3.46, P 1.66, Q 1.61, G 2.75
L13: G 1.93, F 1.65, D 3.44, P 2.35, M 1.63, K 1.9, V 2.72, E 2.3, Y 1.93, S 2.07, N 2.31
K2: A 2.09, F 1.57, G 2.31, S 1.82, P 1.96, C 2.23, V 1.77, L 1.25, Y 1.81, Q 2.65, I 1.45, H 1.8, T 2.34, E 2.05, M 1.7, R 1.64, D 2.19
E11: Y 1.75, H 2.76, K 2.04, I 1.71, V 2.37, D 2.39, T 1.67, L 2.11, Q 2.49, N 2, A 1.57, G 1.55
S8: N 1.68, H 2.01, F 2.35, M 1.61, V 1.56, D 3.25, Q 2.26, K 1.62, C 2.03, L 1.55, I 1.94, E 1.67, R 1.44, A 1.94
Y6: S 2.16, N 2.79, D 2.91, T 2.63, G 2.56, C 1.84, R 1.84, F 2.88, L 2.85, V 1.27, H 2.25, M 2.15, Q 1.96, K 2.05, E 2.3, A 2.85
S1: M 1.36, Y 2.77, H 2.34, K 1.4, I 1.61, N 1.74, A 1.71, L 2.06, E 1.76, C 2.04, G 1.9
